We go through 3 molecules from patent US9127040B2, “Regulation of sodium channels by PLUNC proteins” (The University of North Carolina at Chapel Hill, priority 2011, dated 2015).

The target in test [1] is T1, ENaC (Homo sapiens, UniProt P37088+P51168+P51170).
T1 construct: measured the transepithelial voltage under thin film conditions in human bronchial epithelial cultures; endogenous in cells; host or cells: primary human bronchial epithelial cultures (normal or CF donors)
T1 sequence (P37088 1-669): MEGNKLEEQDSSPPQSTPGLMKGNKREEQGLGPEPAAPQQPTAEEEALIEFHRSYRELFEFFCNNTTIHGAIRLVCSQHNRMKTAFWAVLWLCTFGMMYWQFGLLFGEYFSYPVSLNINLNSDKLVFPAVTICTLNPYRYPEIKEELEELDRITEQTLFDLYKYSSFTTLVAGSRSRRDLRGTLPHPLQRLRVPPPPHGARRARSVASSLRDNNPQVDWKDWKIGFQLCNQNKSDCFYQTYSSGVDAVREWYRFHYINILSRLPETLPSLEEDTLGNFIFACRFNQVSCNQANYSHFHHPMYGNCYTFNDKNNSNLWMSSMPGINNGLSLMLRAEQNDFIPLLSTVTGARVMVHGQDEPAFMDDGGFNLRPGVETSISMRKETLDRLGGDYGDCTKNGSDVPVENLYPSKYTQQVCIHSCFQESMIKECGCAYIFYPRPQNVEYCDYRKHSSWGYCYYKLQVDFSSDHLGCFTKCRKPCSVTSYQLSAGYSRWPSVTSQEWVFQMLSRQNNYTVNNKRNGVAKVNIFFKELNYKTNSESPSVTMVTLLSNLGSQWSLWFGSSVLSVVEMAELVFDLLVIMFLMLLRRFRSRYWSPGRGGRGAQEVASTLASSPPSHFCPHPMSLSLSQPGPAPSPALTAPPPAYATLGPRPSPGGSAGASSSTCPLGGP
T1 sequence (P51168 1-640): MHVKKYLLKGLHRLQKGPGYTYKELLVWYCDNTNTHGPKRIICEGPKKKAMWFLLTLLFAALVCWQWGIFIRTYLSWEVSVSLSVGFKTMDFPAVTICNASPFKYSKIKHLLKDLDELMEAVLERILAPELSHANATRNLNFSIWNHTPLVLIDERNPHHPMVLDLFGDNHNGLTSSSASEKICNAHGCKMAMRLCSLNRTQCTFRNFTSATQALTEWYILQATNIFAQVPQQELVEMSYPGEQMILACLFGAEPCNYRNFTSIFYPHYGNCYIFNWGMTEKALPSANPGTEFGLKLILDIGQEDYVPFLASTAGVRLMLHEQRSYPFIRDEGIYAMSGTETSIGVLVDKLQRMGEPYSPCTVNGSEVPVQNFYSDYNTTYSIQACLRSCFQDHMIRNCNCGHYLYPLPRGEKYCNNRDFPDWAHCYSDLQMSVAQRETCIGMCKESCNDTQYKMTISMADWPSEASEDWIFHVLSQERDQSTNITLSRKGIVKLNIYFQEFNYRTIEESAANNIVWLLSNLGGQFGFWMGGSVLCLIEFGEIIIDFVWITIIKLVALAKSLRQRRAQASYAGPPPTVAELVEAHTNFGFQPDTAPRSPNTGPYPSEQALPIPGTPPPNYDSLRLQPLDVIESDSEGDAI
T1 sequence (P51170 1-649): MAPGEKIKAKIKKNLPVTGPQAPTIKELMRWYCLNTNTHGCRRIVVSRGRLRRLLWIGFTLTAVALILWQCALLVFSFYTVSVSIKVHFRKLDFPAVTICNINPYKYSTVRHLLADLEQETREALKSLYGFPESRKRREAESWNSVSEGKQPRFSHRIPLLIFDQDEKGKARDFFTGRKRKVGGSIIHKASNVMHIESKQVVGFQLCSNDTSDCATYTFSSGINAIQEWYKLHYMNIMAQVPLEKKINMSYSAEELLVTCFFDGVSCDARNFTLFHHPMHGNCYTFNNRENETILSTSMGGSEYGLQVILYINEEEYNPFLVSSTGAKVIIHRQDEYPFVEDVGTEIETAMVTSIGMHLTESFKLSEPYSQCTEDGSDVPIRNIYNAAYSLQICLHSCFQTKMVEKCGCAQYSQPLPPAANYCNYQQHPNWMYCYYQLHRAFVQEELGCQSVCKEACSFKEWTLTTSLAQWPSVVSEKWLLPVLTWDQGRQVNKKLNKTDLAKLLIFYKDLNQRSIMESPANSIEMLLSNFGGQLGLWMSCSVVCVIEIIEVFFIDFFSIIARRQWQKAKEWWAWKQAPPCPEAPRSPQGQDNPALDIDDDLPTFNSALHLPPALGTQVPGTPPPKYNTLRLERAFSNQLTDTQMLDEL
Briefly: Transepithelial voltage (PD), thin film conditions, human bronchial epithelial cultures. The settings on record: 50 ng/ml, PD remeasured 45 min later, prewashed cultures. The format is cell-based. The text has this: Tissue procurement and cell culture: Cells were harvested by enzymatic digestion from human bronchial tissue as previously described under a protocol approved by the UNC School of Medicine IRB (Tarran et al., J. Gen. Physiol. 127:591 (2006)). Human excess donor lungs and excised recipient lungs were obtained at the time of lung transplantation from portions of main stem or […] bronchi and cells were harvested by enzymatic digestion. All preparations were maintained at an air-liquid interface in a modified bronchial epithelial medium and used 2-5 weeks after seeding on 12 mm T-Clear inserts (Corning Costar) coated with human placental type VI collagen (Sigma). Phosphate buffered saline (PBS) was used for washing human bronchial epithelial culture mucosal surfaces. HBECs were maintained at an air-liquid interface in a modified bronchial epithelial growth medium (BEGM) with 5% CO2 at 37° C. and used 2-5 weeks after seeding on 12-mm T-clear inserts (Corning-Costar, Corning, N.Y., USA) (Randell, Methods Mol. Biol. 742:285 (2011)).
A single-barreled potential difference-sensing electrode was placed in the airway surface liquid by micromanipulator and used in conjunction with a macroelectrode in the serosal solution to measure transepithelial voltage using a voltmeter (World Precision Instruments). […] Transepithelial resistance was routinely measured using the EVOM system (WPI) as previously described (Tarran et al., J. Gen. Physiol. 127:591 (2006)).

Test [2] deals with CF HBECs. The settings on record: 30 μM, ASL height over 24 h.
Method: To label airway surface liquid, Ringer containing Texas Red-dextran (2 mg/ml; Invitrogen) was added to human bronchial epithelial culture mucosal surfaces. Perfluorocarbon was added mucosally to prevent evaporation of the airway surface liquid and the culture placed in a chamber containing 100 μl Ringer on the stage of a Leica SP5 confocal microscope with a 63× glycerol immersion objective. 5 points per culture were scanned and an average airway surface liquid height determined. For confocal microscopy human bronchial epithelial cultures were bathed serosally in a modified Ringer solution containing (mM): 116 NaCl, 10 NaHCO3, 5.1 KCl, 1.2 CaCl2, 1.2 MgCl2, 20 TES, 10 glucose, pH 7.4). At all other times, human bronchial epithelial cultures were maintained in a modified BEGM growth medium which contained 24 mM NaHCO3 gassed with 5% CO2.
To label the ASL, PBS containing 10 kDa Rhodamine dextran (0.2-2 mg/mL; Invitrogen, Carlsbad, Calif., USA) was added to HBEC mucosal surfaces as previously described (Tarran et al., Mol. Cell 8:149 (2001)). When added, peptides with or without 100 nM neutrophil elastase, 1 U/mL aprotinin, activated neutrophil supernatant (ANS) (Haynes et al., Am. J. Physiol. Heart Circ. Physiol. 294:H379 (2008)) or 10 μM sivelestat (Sigma-Aldrich, St Louis, Mo., USA) were added to the mucosal surface along with the Rhodamine dextran. Bumetanide (100 μM) was added to the serosal solution.
For test [3], the target named is T2, αβγENaC (Rattus norvegicus, UniProt P37089+P37090+P37091).
T2 construct: expressed in transfected cells; host or cells: Xenopus laevis oocytes (cRNA injection)
T2 sequence (P37089 1-698): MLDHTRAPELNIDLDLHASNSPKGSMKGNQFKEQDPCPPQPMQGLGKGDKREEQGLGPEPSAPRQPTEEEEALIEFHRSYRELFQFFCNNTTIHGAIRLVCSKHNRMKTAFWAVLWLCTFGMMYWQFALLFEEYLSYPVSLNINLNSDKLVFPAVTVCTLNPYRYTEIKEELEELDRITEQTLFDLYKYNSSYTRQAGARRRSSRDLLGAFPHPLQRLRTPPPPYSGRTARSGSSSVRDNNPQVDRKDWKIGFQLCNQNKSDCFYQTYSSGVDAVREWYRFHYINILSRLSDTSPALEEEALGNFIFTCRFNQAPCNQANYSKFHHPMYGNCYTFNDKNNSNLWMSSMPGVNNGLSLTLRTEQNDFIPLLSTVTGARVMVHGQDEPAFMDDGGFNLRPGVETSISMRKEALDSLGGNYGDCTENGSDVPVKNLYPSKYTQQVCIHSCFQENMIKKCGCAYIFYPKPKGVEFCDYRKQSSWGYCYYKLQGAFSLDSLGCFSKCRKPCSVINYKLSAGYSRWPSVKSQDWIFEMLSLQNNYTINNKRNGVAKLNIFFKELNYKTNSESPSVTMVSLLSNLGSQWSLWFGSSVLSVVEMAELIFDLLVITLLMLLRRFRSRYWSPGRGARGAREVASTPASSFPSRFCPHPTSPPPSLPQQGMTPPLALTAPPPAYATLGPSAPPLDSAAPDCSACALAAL
T2 sequence (P37090 1-638): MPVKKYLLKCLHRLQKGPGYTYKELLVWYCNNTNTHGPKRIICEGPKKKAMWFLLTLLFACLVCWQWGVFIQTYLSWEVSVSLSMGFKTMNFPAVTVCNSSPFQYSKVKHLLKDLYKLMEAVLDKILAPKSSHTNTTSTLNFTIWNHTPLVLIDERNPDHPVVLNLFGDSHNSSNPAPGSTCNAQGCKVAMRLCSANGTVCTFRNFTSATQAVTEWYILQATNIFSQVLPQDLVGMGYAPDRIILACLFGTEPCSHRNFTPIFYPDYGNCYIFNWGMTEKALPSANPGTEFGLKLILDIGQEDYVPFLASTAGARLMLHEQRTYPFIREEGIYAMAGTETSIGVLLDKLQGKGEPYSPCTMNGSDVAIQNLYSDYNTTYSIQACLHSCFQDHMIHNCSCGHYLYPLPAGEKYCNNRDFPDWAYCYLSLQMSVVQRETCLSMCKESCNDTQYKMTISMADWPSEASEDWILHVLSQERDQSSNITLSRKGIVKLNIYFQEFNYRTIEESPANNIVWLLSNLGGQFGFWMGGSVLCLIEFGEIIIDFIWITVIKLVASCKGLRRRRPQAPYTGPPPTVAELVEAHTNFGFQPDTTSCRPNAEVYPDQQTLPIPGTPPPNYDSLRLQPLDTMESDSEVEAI
T2 sequence (P37091 1-650): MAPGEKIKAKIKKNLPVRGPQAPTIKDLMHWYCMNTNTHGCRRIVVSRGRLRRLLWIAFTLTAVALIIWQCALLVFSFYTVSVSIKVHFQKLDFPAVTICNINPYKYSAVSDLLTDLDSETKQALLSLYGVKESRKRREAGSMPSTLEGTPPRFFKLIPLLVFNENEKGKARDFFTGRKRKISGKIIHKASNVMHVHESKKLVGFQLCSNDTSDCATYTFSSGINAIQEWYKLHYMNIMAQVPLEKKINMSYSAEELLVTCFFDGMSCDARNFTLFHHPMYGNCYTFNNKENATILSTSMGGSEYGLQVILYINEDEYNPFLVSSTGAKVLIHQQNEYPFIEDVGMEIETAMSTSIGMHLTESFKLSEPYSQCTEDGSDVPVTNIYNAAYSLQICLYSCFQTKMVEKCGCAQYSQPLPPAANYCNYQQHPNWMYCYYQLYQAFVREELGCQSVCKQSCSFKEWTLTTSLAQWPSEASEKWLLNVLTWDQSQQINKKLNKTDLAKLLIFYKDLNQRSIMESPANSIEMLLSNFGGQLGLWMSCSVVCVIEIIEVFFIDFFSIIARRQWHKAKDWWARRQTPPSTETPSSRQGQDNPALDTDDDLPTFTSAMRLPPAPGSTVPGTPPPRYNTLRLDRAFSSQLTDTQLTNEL
Briefly: Amiloride-sensitive whole cell current, two electrode voltage clamp, Xenopus laevis oocytes expressing αβγENaC. The format is cell-based. The settings on record: PLUNC family member co-expressed with α,β,γ ENaC. How it is done:
Xenopus laevis oocytes were harvested and injected as described (Donaldson, et al., J. Biol. Chem. 277:8338 (2002)). Defolliculated healthy stage V-VI oocytes were injected with 0.3 ng of CRNA of each ENaC subunit. Injected oocytes were kept in modified Barth's saline (in mM: 88 NaCl, 1 KCl, 2.4 NaHCO3, 0.3 Ca(NO3)2, 0.41 CaCl2, 0.82 MgSO4, and 15 HEPES, adjusted to pH 7.35 with Tris). Oocytes were studied 24 hr after injection using the two electrode voltage clamp technique as previously described (Donaldson, et al., J. Biol. Chem. 277:8338 (2002)). Oocytes were clamped at a holding potential of −60 mV. The change in amiloride-sensitive whole cell current as an indicator of ENaC activity was determined by subtracting the corresponding current value measured in the presence of 10 μM amiloride from that measured before the application of amiloride. Where appropriate, oocytes were incubated with G22-A39 or ABC for 1 h prior to recording. In some experiments β-ENaC^S518C was used which forms ENaCs that are locked into an open probability near 1.0 by exposure to the sulthydral reactive reagent [2-(Trimethyl-ammonium)ethyl]methanethiosulphonate bromide (MTSET). MTSET was added at a concentration of 1 mM to the oocyte bath as previously described (Snyder, J. Clin. Invest. 105: 45 (2000)).

Where a chain is given by its changes, count along the chain named. Names may count otherwise.

B1: recombinant SPLUNC1 that had been reduced with DTT: recombinant SPLUNC1 pretreated (reduced) with DTT (protein, UniProt Q9NP55 20-256, looked up)
BPI fold-containing family A …: QFGGLPVPLDQTLPLNVNPALPLSPTGLAGSLTNALSNGLLSGGLLGILENLPLLDILKPGGGTSGGLLGGLLGKVTSVIPGLNNIIDIKVTDPQLLELGLVQSPDGHRLYVTIPLGIKLQVNTPLVGASLLRLAVKLDITAEILAVRDKQERIHLVLGDCTHSPGSLQISLLDGLGPLPIQGLLDSLTGILNKVLPELVQGNVCPLVNEVLRGLDITLVHDIVNMLIHGLQFVIKV
modifications: DTT-reduced
Turning to B1, the “inhibition of transepithelial PD after DTT reduction” value in test [1] is “abolished SPLUNC1 activity”.

B2: mutant SPLUNC1: SPLUNC1 with hinge domain mutated to alanines: K94A, N103A, N104A, K138A, Q140A, N142A, D193A (protein, UniProt Q9NP55 20-256, looked up, variant K94A N103A N104A K138A Q140A N142A D193A)
BPI fold-containing family A …: B1 BPI fold-containing family A … with K75A, N84A, N85A, K119A, Q121A, N123A, D174A
For B2, the “ASL absorption in CF cultures” value in test [2] is reported as “significantly inhibited ASL absorption”.

B3: SPLUNC2: human SPLUNC2 (SEQ ID NO:2), short PLUNC family protein co-expressed in oocytes (protein, listed as Homo sapiens)
chain: MLQLWKLVLLCGVLTGTSESLLDNLGNDLSNVVDKLEPVLHEGLETVDNTLKGILEKLKVDLGVLQKSSAWQLAKQKAQEAEKLLNNVISKLLPTNTDIFGLKISNSLILDVKAEPIDDGKGLNLSFPVTANVTVAGPIIGQIINLKASLDLLTAVTIETDPQTHQPVAVLGECASDPTSISLSLLDKHSQIINKFVNSVINTLKSTVSSLLQKEICPLIRIFIHSLDVNVIQQVVDNPQHKTQLQTLI
B3: the “amiloride-sensitive ENaC current relative to control, co-expression” value in test [3] is listed as “borderline significance”.
